From US8809529B2, “Imidazo[1,2-α]pyrazine derivatives” (Promega Corporation, priority 2010, dated 2014)

Tests used:
[1] = molecular target: T1, L27V02 enzyme (Oplophorus gracilirostris, UniProt Q9GV45, A31E/A60N/A81I/F95D/I117V/K70R/L54V/L99Q/M102K/N193R/P142E/Q151K/Q38R/Q45L/V71I/Y165I); assay: Luminescence of compounds with purified L27V02 enzyme; format: biochemical; conditions: 20 μM compound, 36 pM L27V02, pH 7, 3 min
T1 construct: The N-terminus of the OgLuc variant L27V is methionine, valine and phenylalanine, i.e., MVF; made in house
T1 sequence (Q9GV45 28-196 with tags or gaps with the stated changes limits assumed, one chain of several): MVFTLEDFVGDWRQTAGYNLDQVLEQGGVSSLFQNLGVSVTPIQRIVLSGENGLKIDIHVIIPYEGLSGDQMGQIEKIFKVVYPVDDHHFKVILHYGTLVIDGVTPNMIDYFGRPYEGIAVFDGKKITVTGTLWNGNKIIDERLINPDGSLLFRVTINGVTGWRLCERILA
Procedure: Compounds PBI-4525, PBI-4540 and PBI-4541 were screened for their ability to detect luminescence. […] The assay reagent was then mixed with 36 pM purified L27V02 enzyme (described in Example 25B), in DMEM without Phenol Red and 0.1% PRIONEX®. As a control, assay buffer with 20 μM PBI-3939 or PBI-4528 was used. Luminescence was measured as previously described 3 min after the assay reagent was added to the enzyme mixture.

[2] = Stability of coelenterazines in reporter reagent buffer (T90); conditions: time for luminescent signal to decay by 10% at 22° C.; read with OgLuc variant IV lysate
[3] = test system: HEK293 cells; assay: Toxicity of coelenterazines in HEK293 cells (CELLTITER-GLO); conditions: 24 hrs after compound addition
[4] = molecular target: T2, OgLuc variant 9B8 opt (Oplophorus gracilirostris, UniProt Q9GV45, A31E/A60K/A81I/F95Y/I117V/L99Q/M102K/N193R/P142E/Q151K/Q38R/Q45L/V71I/Y165I); assay: Multiplex assay with red click beetle luciferase and 9B8 opt (modified DUAL-GLO); format: biochemical
T2 construct: made in house; host or cells: E. coli (crude lysate)
Procedure: A. Lysates of E. coli expressing the variant 9B8 opt were prepared as previously described in Example 27 and diluted 1000-fold in DMEM without phenol red+0.1% PRIONEX®. Luminescence from a sample containing 6.3 μg/mL of purified red click beetle luciferase and E. coli lysate expressing the variant 9B8 opt was detected using a modified DUAL-GLO® Luciferase Assay System (Promega Corp.). DUAL-GLO® STOP&GLO® Reagent containing 20 μM coelenterazine-h and DUAL-GLO® STOP&GLO® Reagent containing 20 μM PBI 3939 were used, according to the manufacturer's protocol, to detect the red click beetle luciferase and OgLuc variant 9B8 luciferase from a single sample. Three replicates were performed.
Luminescence was detected on a Turner MODULUS™ luminometer. […] The standard deviation (“+/−”) and coefficient of variance (“CV”) are also shown. A “no coelenterazine” control was performed to illustrate the amount of quenching of the red click beetle signal by the DUAL-GLO® STOP&GLO® Reagent of the DUAL-GLO® Luciferase Assay System in the absence of coelenterazine. The “no coelenterazine” control yielded a 349-fold quench.

[5] = test system: CRE; assay: CRE transcriptional reporter, bulk transfection, NIH3T3 cells; format: cell-based
Procedure: (§1) The transcriptional reporter containing […] and 9B8 opt-P was used in the bulk transfection of HeLa cells
(§2) HEK293, NIH3T3, or HeLa cells were plated to a single well of a 6-well tissue culture plate the day before transfection at a density of 4.5×10^5 cells/well in 3 mL complete medium (DMEM+10% FBS+1×NEAA+1× sodium pyruvate) for HEK293 cells, 3×10^5 cellsNvell in 3 mL complete medium (DMEM+10% fetal calf serum (FCS)+1×NEAA+1× sodium pyruvate) for NIH3T3 cells, or 9.9×10^5 cells/well in 3 mL complete medium (DMEM+10% FBS+1×NEAA) for HeLa cells. Cells were grown overnight at 37° C.
(§3) 3,300 ng of reporter plasmid DNA in 155 4 OPTI-MEM® was mixed with 9.9 μL FUGENE® HD transfection reagent, vortexed briefly, and incubated at room temperature for 10 min. The CRE transcriptional reporters were used to transfect HEK293 and NIH3T3 cells. The HRE transcriptional reporters were used to transfect HeLa cells. The reporter mixture was added to cells and mixed by gentle rocking followed by incubation at 37° C. for 6 hrs (HEK293 and NIH3T3) or 3 hrs (HeLa). Cells were then trypsinized and resuspended in medium (DMEM+10% FBS+1×NEAA+1× sodium pyruvate for HEK293 cells, DMEM+10% FCS+1×NEAA+1× sodium pyruvate for NIH3T3 cells, or DMEM+10% FBS+1×NEAA for HeLa cells), followed by plating to the individual wells of a 96-well plate (20,000 cells/100 μL for HEK293, 10,000 cells/100 4 for NIH3T3, or […] for HeLa) and incubated at 37° C. overnight.
(§4) FSK (CRE stimulator) or 17-AAG (HRE stimulator; 17-Allylamino-demethoxy geldanamycin) in OPTI-MEM® was added to the cells (10 nM or 10 μM final concentration for FSK; 1 nM or 1 μM final concentration for 17-AAG) and incubated at 37° C. for 4 hrs (FSK) or 6 hrs (17-AAG). Plates were removed from the incubator and allowed to equilibrate to room temperature for 25 min. Cells were lysed with 100 μL lytic reagent as described above for the forward transfection. Luminescence was measured on a GLOMAX® Luminometer.

[6] = test system: heat shock response element (HRE); assay: HRE transcriptional reporter, bulk transfection, HeLa cells; format: cell-based
Procedure: as §1, §2, §3, §4

[7] = test system: antioxidant response element (ARE); assay: ARE transcriptional reporter, reverse transfection, HEK293 cells; format: cell-based, human; conditions: 24 h, 100 ng DNA
[8] = test system: cAMP response element (CRE); assay: CRE transcriptional reporter, forward transfection, HEK293 cells; format: cell-based, human; parameters: Response: scale not given here; conditions: for baseline: 10 nM FSK; for baseline / RLU (10 μM FSK): 3 h
Procedure: HEK293 cells were plated at 15,000 cells/well in six 96-well tissue culture plates. Cells were grown in 100 μL of DMEM+10% FBS+1× non-essential amino acids (NEAA) and incubated overnight at 37° C. The cells were transiently transfected with either 10 ng or 100 ng plasmid DNA/well of pGL4.29 9B8 opt, pGL4.29 9B8 opt-P, or pGL4.29. Plasmid DNA was mixed with 850 μL of OPTI-MEM® (Invitrogen) and 32.4 μL of FUGENE® HD transfection reagent (Promega Corp.) and incubated at room temperature for 10 min. Eight μL of the transfection/reporter DNA mixture was added to the appropriate wells (2 constructs/plate). Cells were incubated for 4 hrs at 37° C. The medium was replaced with OPTI-MEM®+0.5% dialyzed FBS+1×NEAA+1× sodium pyruvate+1× Penn-Strep and incubated overnight at 37° C.
A lytic reagent containing 100 mM MES pH 6.1, 1 mM CDTA, 150 mM KCl, 35 mM thiourea, 2 mM DTT, 0.25% TERGITOL® NP-9 (v/v), 0.025% MAZU® DF 204, and 20 μM PBI-3939 was added to the cells containing pGL4.29 9B8 opt or pGL4.29 9B8 opt-P and allowed to incubated for 10 min at room temperature (100 μL lytic reagent added to 100 μL cells). ONE-GLO™ assay reagent (Promega Corp.) was added to cells containing pGL4.29 and used according to the manufacturer's protocol (100 μL reagent added to 100 μL cells). Luminescence was measured on a GLOMAX® Luminometer.

[9] = test system: antioxidant response element (ARE); assay: ARE transcriptional reporter, reverse transfection, HEK293 cells; format: cell-based, human; conditions: for baseline: 24 h, 100 ng DNA
Procedure: HEK293 cells were trypsinized (T75 flask, 3 mL trypsin) and resuspended in […] (approximately 8.9×10^6 total cells) in medium containing DMEM+10% FBS+1×NEAA. Each transcriptional reporter was prepared for transfection by mixing 1.2 mL OPTI-MEM®, 12 μL transcription reporter DNA (100 ng) and 36 μL FUGENE® HD transfection reagent together and incubated at room temperature for 35 min. Following incubation, 624 μL of the transfection/reporter DNA mixture was added to 12 mL of cell suspension and mixed by inversion. After mixing, 100 μL of the cell/DNA mixture was added to wells of a 96-well plate (2 constructs/plate). The cells were incubated at 37° C. for 22 hrs. Tert-butylhydroquinone (a Nrf2 stabilizer; tBHQ; 1 μM (“baseline”) or 20 μM) or sulphoraphane, (an organosulfer antioxidant known to activate Nrf2; 1 μM (“baseline”) or 20 μM) in OPTI-MEM® was added to each well and incubated at 37° C. for 24 hrs. Cells were lysed with 100 μL lytic reagent as described above for the forward transfection. Luminescence was measured on a GLOMAX® Luminometer.

[10] = test system: CRE; assay: CRE transcriptional reporter, bulk transfection, HEK293 cells; format: cell-based, human
Procedure: as §1, §2, §3, §4

**Q.** Which RLU [1] does the source give for `O=c1c(Cc2ncc[nH]2)nc2c(Cc3ccccc3)[nH]c(-c3ccccc3)cn1-2` [PBI-4541, 2-((1H-imidazol-2-yl)methyl)-8-benzyl-6-phenylimidazo[1,2-a]pyrazin-3(7H)-one] here?
**A.** The RLU was 5,676 RLU.

**Q.** For “coelenterazine-h [Coelenterazine h, reference compound]”, which “Stability (pH 8) (T90 in hrs)” value [2] is on record?
**A.** Its value is 2.1 hrs.

**Q.** And the “Viability (normalized to vehicle (DMSO) control) (%)” value [3]?
**A.** Its value is 100%.

**Q.** And the “Ogluc (average luminescence generated by 9B8 opt)” value ([4]; 20 μM substrate in DUAL-GLO STOP&GLO Reagent)?
**A.** Its value is 921,440.

**Q.** What about the “+/− coel” value ([4]; Ogluc signal relative to no coelenterazine control) of the same molecule?
**A.** The value was 64.

B1: 9B8 opt-P: 9B8 opt further comprising the PEST protein degradation sequence (protein)
chain: MVFTLEDFVGDWRQTAGYNLDQVLEQGGLSSLFQKLGVSVTPIQKIVLSGENGLKIDIHVIIPYEGLSGYQMGQIEKIFKVVYPVDDHHFKVILHYGTLVIDGVTPNMIDYFGRPYEGIAVFDGKKITVTGTLWNGNKIIDERLINPDGSLLFRVTINGVTGWRLCERILANSHGFPPEVEEQAAGTLPMSCAQESGMDRHPAACASARINV
**Q.** With B1 as the molecule, how does the baseline ([5]; NIH3T3, 10 nM FSK, 4 h) read?
**A.** The baseline was 410,461.

**Q.** And the “RLU (10 mM FSK)” value ([5]; NIH3T3, 4 h)?
**A.** Its value is 3,720,000 RLU.

**Q.** What about the Response ([5]; NIH3T3, FSK) of the same molecule?
**A.** The Response was 9.

**Q.** What about the Response ([6]; 17-AAG) of the same molecule?
**A.** The Response was 12.

**Q.** What about the “RLU (1 mM 17-AAG)” value ([6]; 6 h) of the same molecule?
**A.** Its value is 3,204,000 RLU.

**Q.** What about the baseline ([6]; 6 h) of the same molecule?
**A.** The baseline was 278,118.

**Q.** And the “RLU (20 μM sulphoraphane)” value [7]?
**A.** The value was 3,940,000 RLU.

**Q.** What about the “RLU (20 μM tBHQ)” value [7] of the same molecule?
**A.** The value was 8,460,000 RLU.

**Q.** What about the Response ([8]; 10 ng DNA for transfection) of the same molecule?
**A.** Its Response is 121.

**Q.** And the baseline ([8]; 10 ng DNA for transfection)?
**A.** Its baseline is 11179.

**Q.** And the “RLU (10 μM FSK)” value ([8]; 10 ng DNA for transfection)?
**A.** The value was 1,353,459 RLU.

**Q.** What about the Response ([8]; 100 ng DNA for transfection) of the same molecule?
**A.** The Response was 168.

**Q.** And the baseline ([8]; 100 ng DNA for transfection)?
**A.** The baseline was 122,071.

**Q.** And the “RLU (10 μM FSK)” value ([8]; 100 ng DNA for transfection)?
**A.** The value was 20,544,753 RLU.

**Q.** What about the baseline ([9]; 1 μM sulphoraphane) of the same molecule?
**A.** Its baseline is 258,406.

**Q.** What about the baseline ([9]; 1 μM tBHQ) of the same molecule?
**A.** Its baseline is 317,238.

**Q.** And the Response ([9]; sulphoraphane)?
**A.** The Response was 15.

**Q.** And the Response ([9]; tBHQ)?
**A.** Its Response is 27.

**Q.** What about the baseline ([10]; HEK293, 10 nM FSK, 4 h) of the same molecule?
**A.** Its baseline is 3,960,000.

**Q.** What about the “RLU (10 mM FSK)” value ([10]; HEK293, 4 h) of the same molecule?
**A.** The value was 460,000,000 RLU.

**Q.** What about the Response ([10]; HEK293, FSK) of the same molecule?
**A.** The Response was 116.
